# According to US20100183625A1, “Treatment of Mucositis with Kallikrein Inhibitors” (Dyax Corp., priority 2009, published 2010):
# Residue numbers refer to the chain shown, from its start. Read-outs that look alike come from different tables or passages of the source.
# B1: M137-E12: antibody inhibitor of pKal; HV-CDR3 … (antibody, V domains shown)
# VL: QSVLIQPPSVSGIPGQRVTISCSGNNSNFGSNTVTWYQQLPGTAPKLLIYSDSRRPSGVPDRFSGSRSDTSASLAISGLQSEDEAEYHCAAWDDSLNGVFGGGTKLTVL
# VH: EVQLLESGGGLVQPGGSLRLSCAASGFTFSDYRMQWVRQAPGKGLEWVSVIVPSGGNTMYADSVKGRFTISRDNSKNTLYLQMNSLRAEDTAVYYCARGGPGSSIAARRAPTGYYGMDVWGQGTTVTVSSASTKGPSVFPLAPSSKS
# B2: M210-C12 (antibody, V domains shown)
# VL: QDIQMTQSPGTLSLSPGERATLSCRTSQFVNSNYLAWYQQTPGQAPRLLIYGASSRATGIPDRFSGTGYGTDFTLTISRLEPEDYGTYYCQQSSRTPWTFGQGTRVEIK
# VH: EVQLLESGGGLVQPGGSLRLSCAASGFTFSHYLMTWVRQAPGKGLEWVSYISPSGGHTIYADSVKGRFTISRDNSKNTLYLQMNSLRAEDTAVYYCARVAQGIAARSRTSSVDQWGQGTLVTVSSASTKGPSVFPLAPSSKS
# B3: M209-F04 (antibody, V domains shown)
# VL: B2 VL
# VH: B2 VH with Q101R, S111Y, V112L
# B4: M206-F01 (antibody, V domains shown)
# VL: B2 VL
# VH: B2 VH with H31G, L33M, T35V, Y50R, H57P, Q101R, S111Y, V112F, Q114Y
# B5: M12-D05: antibody inhibitor of pKal; HV-CDR3 EGLLWFGENAFDI (antibody, V domains shown)
# VL: QSVLTQPPSVSVSPGQTATITCSGDQLGDKYVGWYQQKPGQSPILVIYQDTKRPSGIPERFSGSNSGNTATLTISGTHTVDEAHYYCQAWDTSTAGFGGGTKLTVL
# VH: EVQLLESGGGLVQPGGSLRLSCAASGFTFSWYTMVWVRQAPGKGLEWVSRIYPSGGWTKYADSVKGRFTISRDNSKNTLYLQMNSLRAEDTATYYCAREGLLWFGENAFDIWGQGTMVTVSSASTKGPSVFPLAPSSKS
# B6: M28-B11: antibody inhibitor of pKal; HV-CDR3 EGLLWFGENAFDI (antibody, V domains shown)
# VL: B5 VL
# VH: B5 VH
# B7: M29-D09: antibody inhibitor of pKal; HV-CDR3 GSYDYIWGFYSDH (antibody, V domains shown)
# VL: QSALTQPPTVSVSPGQTARITCSGNKLGDKYVAWYQQKPGQSPMLVIYQDTKRPSAIPERFSGSNSANTATLSISGTQALDEADYYCQAWDSSIVIFGGGTRLTVL
# VH: EVQLLESGGGLVQPGGSLRLSCAASGFTFSWYTMVWVRQAPGKGLEWVSYIYPSGGATFYADSVKGRFTISRDNSKNTLYLQMNSLRAEDTAVYYCAMGSYDYIWGFYSDHWGQGTLVTVSSASTKGPSVFPLAPSSKS
# B8: M202-A12 (antibody, V domains shown)
# VL: QDIQMTQSPSTLSASVGDRVTITCRASQSISSWLAWYQQKPGKAPNLLIYKASTLESGVPSRFSGSGSGTEFTLTISSLQPDDFATYYCQQYNTYWTFGQGTKVEIK
# VH: EVQLLESGGGLVQPGGSLRLSCAASGFTFSHYIMMWVRQAPGKGLEWVSGIYSSGGITVYADSVKGRFTISRDNSKNTLYLQMNSLRAEDTAVYYCAYQRTGVPRRDSFNIWGQGTMVTVSSASTKGPSVFPLAPSSKS
# What was measured:
# [1] = molecular target: T1, human plasma kallikrein (human pKal) (Homo sapiens, UniProt P03952); test: Ki,app against human pKal by steady state enzyme kinetics (in vitro protease cleavage assay, Pro-Phe-Arg-aminomethylcoumarin substrate); format: biochemical
# T1 construct: two disulfide linked polypeptides; a heavy chain of approximately 52 kDa and a catalytic domain of approximately 34 kDa; host or cells: human plasma
# T1 sequence (P03952 391-638 limits assumed): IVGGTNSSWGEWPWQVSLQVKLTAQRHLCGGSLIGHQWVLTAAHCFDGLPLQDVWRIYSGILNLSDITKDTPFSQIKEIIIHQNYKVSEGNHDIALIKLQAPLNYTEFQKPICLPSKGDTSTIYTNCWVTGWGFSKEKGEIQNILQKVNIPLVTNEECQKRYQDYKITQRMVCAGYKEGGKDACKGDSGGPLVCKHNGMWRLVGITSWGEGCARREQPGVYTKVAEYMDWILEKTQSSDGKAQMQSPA
# T1 sequence (P03952 20-390 partner limits assumed): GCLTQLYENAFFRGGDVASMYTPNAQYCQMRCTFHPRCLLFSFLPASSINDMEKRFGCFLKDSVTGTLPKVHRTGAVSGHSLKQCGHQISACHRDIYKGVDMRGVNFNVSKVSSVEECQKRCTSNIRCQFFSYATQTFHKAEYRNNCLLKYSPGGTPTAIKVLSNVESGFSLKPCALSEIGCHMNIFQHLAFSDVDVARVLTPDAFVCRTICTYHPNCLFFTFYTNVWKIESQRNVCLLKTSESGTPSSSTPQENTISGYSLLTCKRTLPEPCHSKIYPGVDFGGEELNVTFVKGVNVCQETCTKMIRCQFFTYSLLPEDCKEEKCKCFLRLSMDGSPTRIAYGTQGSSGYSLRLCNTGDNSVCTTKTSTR
# Description: The inhibition constant (Ki) provides a measure of inhibitor potency; it is the concentration of inhibitor required to reduce enzyme activity by half and is not dependent on enzyme or substrate concentrations. The apparent Ki (Ki,app) is obtained at different substrate concentrations by measuring the inhibitory effect of different concentrations of inhibitor (e.g., inhibitory binding protein) on the extent of the reaction (e.g., enzyme activity); fitting the change in pseudo-first order rate constant as a function of inhibitor concentration to the Morrison equation (Equation 1) yields an estimate of the apparent Ki value. The Ki is obtained from the y-intercept extracted from a linear regression analysis of a plot of Ki,app versus substrate concentration.
# Where v=measured velocity; v0=velocity in the absence of inhibitor; Ki,app=apparent inhibition constant; I=total inhibitor concentration; and E=total enzyme concentration.
# The sequence of human plasma kallikrein that was used in selections and subsequent screening of binding proteins is shown below (accession number NP_000883.2). The human plasma kallikrein (86 kDa) that was used was purified from human plasma and activated with factor XIIa by a commercial vendor. Factor XIIa activates prekallikrein by cleaving the polypeptide sequence at a single site (between Arg371-Ile372, cleavage site marked by “/” in the sequence below) to generate active plasma kallikrein, which then consists of two disulfide linked polypeptides; a heavy chain of approximately 52 kDa and a catalytic domain of approximately 34 kDa [Colman and Schmaier, (1997) “Contact System: A Vascular Biology Modulator With Anticoagulant, Profibrinolytic, Antiadhesive, and Proinflammatory Attributes” Blood, 90, 3819-3843]
# These antibodies were produced as Fab fragments in small scale (˜20 μg) and tested for inhibition against human pKal in an in vitro protease cleavage assay using Pro-Phe-Arg-aminomethylcoumarin as the synthetic peptide substrate. […] Five antibodies were then expressed in 293T cells and purified by protein A sepharose chromatography. The antibodies were analyzed by SDS-PAGE to determine which of the inhibitory mutants are not cleaved by the host cell protease(s) (data not shown).
# [2] = molecular target: T2, biotinylated plasma kallikrein (human pKal) (Homo sapiens, UniProt P03952); test: Human pKal ELISA (T/B); format: binding; conditions: ELISA signal of target (biotinylated plasma kallikrein) divided by signal of background (streptavidin); Table 6
# T2 construct: two disulfide linked polypeptides; a heavy chain of approximately 52 kDa and a catalytic domain of approximately 34 kDa; host or cells: human plasma
# T2 sequence (P03952 391-638 limits assumed): as the sequence (P03952 391-638 limits assumed) above
# T2 sequence (P03952 20-390 partner limits assumed): as the sequence (P03952 20-390 partner limits assumed) above
# pKal = molecular target: T3, pKal (Homo sapiens, UniProt P03952); test: Inhibition screening with 10 nM antibody (as Fab fragments); format: biochemical
# T3 construct: two disulfide linked polypeptides; a heavy chain of approximately 52 kDa and a catalytic domain of approximately 34 kDa; host or cells: human plasma
# T3 sequence (P03952 391-638 limits assumed): as the sequence (P03952 391-638 limits assumed) above
# T3 sequence (P03952 20-390 partner limits assumed): as the sequence (P03952 20-390 partner limits assumed) above
# Description: The 82 antibodies that were discovered based on improvements in M162-A04 due to modifications in either the CDR1/2 and CDR3 region are shown in Table 12.
# The 62 antibodies that were discovered based on improvements in X63-G06 due to modifications in either the CDR1/2 and CDR3 region are shown in Table 13.
# mouse pKal = molecular target: T4, mouse pKal (Mus musculus, UniProt P26262); test: Ki,app against mouse pKal; format: biochemical; conditions: Table 15
# T4 construct: active plasma kallikrein (pkal) has the single polypeptide chain cleaved at a single position
# T4 sequence (P26262 391-638 limits assumed): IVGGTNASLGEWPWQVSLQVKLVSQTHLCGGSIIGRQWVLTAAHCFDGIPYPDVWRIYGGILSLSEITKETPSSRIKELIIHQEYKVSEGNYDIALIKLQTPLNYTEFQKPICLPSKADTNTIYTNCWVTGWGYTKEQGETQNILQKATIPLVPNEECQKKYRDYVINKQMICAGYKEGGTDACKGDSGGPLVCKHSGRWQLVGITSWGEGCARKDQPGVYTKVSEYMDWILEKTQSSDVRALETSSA
# T4 sequence (P26262 20-390 partner limits assumed): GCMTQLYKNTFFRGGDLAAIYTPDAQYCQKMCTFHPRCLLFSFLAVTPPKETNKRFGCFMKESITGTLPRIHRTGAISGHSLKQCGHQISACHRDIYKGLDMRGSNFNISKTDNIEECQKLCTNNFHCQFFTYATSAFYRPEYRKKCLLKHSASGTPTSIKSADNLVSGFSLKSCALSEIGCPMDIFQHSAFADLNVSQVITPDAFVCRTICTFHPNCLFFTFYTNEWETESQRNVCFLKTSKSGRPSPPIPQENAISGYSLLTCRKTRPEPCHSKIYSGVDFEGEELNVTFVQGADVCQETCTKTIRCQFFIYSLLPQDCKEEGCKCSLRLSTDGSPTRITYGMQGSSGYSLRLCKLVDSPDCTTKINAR
# Experimental: Fourth, antibodies were tested for their ability to inhibit pKal from other species, besides human, where the amino acid sequence of pKal has been determined in order to identify amino acids that may account for the differences in inhibition.
# Antibodies that inhibit the activity of pKal either bind near the active site and preclude substrate interactions (competitive inhibitors) or that bind away from the active site and induce allosteric changes in the structure of the active site (noncompetitive inhibitors).
# [3] = Table 6, read-out: Human pKal (Ki, app nM)
# [4] = human pKal, Table 13, antibodies based on X63-G06, read-out: human pKal Ki, app
# [5] = Table 13, antibodies based on X63-G06
Molecule,"Ki [1, 3]",Human pKal ELISA (T/B) [2],"Ki [1, 4]",% inhibition at 10 nM (pKal; [5]),further results
B1,79 nM,4.5,–,–,–
B2,–,–,0.16 nM,95.6%,–
B3,–,–,0.09 nM,97.6%,–
B4,–,–,0.2 nM,92.6%,–
B5,5.2 nM,48.5,–,–,–
B6,5.5 nM,33.3,–,–,–
B7,–,–,–,–,"mouse Ki, app (nM) (mouse pKal): no"
B8,–,–,–,–,"Ki ([1]; human pKal, Table 12, antibodies based on M162-A04, read-out: human pKal Ki, app): 0.2 nM; % inhibition at 10 nM (pKal; Table 12, antibodies based on M162-A04): 97.5%"
